From patent US20190071489A1 come the findings set out here.

Test [1] deals with EBOV GP (Ebola virus , Mayinga) (UniProt Q05320). Briefly: cell-based or functional assay.
Test [2] has the same target.
Test [3] shares this target. The source holds these as a separate data set.

“And” between values parts separate entries of the source, which are not always exact repeats. Identical values can stand only once. Bounds are passed on as bounds.

Chain of UniProt Q05320 (Q05320 33-501, chain 1 of 2): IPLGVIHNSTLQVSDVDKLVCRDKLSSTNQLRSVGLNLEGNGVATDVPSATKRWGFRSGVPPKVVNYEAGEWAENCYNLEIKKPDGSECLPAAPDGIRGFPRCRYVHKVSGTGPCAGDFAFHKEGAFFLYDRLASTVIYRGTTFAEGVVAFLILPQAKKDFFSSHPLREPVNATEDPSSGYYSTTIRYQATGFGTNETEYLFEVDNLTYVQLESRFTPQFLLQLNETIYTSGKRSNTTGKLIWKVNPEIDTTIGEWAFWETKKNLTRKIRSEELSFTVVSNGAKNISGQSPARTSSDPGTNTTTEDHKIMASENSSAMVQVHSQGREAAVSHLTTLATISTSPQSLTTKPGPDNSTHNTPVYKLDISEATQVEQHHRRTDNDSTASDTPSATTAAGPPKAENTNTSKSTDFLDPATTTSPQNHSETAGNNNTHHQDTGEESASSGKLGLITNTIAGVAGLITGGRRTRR
Chain of UniProt Q05320 (Q05320 502-650, chain 2 of 2): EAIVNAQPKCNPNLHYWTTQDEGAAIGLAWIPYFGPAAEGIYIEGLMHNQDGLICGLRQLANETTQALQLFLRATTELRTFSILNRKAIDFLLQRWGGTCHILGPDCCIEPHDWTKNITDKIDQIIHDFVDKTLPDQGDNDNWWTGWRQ

Regarding 13C6 (antibody), in test [1], the neutralization at 10 µg/mL was less than 20%.
As for KZ52 (antibody), the maximum inhibition of input virus in test [1] is 80% and 90%.

B1: EVB165 (antibody, V domains shown)
VH: DVQLVESGGGVVQPGGSLKLACVVSGFRFSDYWMSWVRQAPGKGLEWVANIKQDGSGKYYVDSVKGRFTVSRDNAKNSLYLHMTSLGAEDTAVYFCARAAPTGSYTNILVDNVHFDYWGQGILVAVSS
VL: GIQLTQSPGSLSASVGDSVTITCRPNQNIATYINWYQQTPGKAPKLLIYAASILQSGVPSRFSGAGSGTHFTLIISTLQPEDSATYYCQQSYSTPWTFGQGTKVEIK
The EC50 is the concentration that produces a half-maximal response. Higher therefore signals a need for much substance. In test [2], B1 registered an Abs 450 (1/27) of 1.72 Abs 450 and an Abs 450 (Und.) of 3.17 Abs 450. Further, in test [3], the EC50 is more than 1 µg/mL. The molecule also registered a maximum inhibition of input virus in test [1] of 100%.

B2: EVB100 (antibody, V domains shown)
VH: QVQLQESGPGLVKPSDTLSLTCTVSGGSLSSFYWSWIRQPPGKGLEWIGYIYYSGSPNYSPSLESRVTMSVDTTRNQISLKLDSVTAADTAVYYCVRASRSYYWGSYRPTAFDSWGQGTLVTVSS
VL: SYELTQPLSVSVSPGQTAIFTCSGDNLGDKYVCWFQQRPGQSPMLLIYQDNKRPSGIPERFSGSNSGNTATLTISGTQSTDEADYYCQTWDSTVVFGGGTKLTVL
B2 gave an EC50 in test [3] of 0.26 µg/mL. In addition, the maximum inhibition of input virus in test [1] amounted to 100%.

B3: EVB114 (antibody, V domains shown)
VH: EVQLVESGGGLIQPGGSLRLSCAASGFALRMYDMHWVRQTIDKRLEWVSAVGPSGDTYYADSVKGRFAVSRENAKNSLSLQMNSLTAGDTAIYYCVRSDRGVAGLFDSWGQGILVTVSS
VL: DIQMTQSPSSLSASVGDRITITCRASQAFDNYVAWYQQRPGKVPKLLISAASALHAGVPSRFSGSGSGTHFTLTISSLQPEDVATYYCQNYNSAPLTFGGGTKVEIK
In the case of B3, in test [3], the EC50 stood at 0.07 µg/mL and the maximal binding, higher than the other antibodies was found to be 100%. The maximum inhibition of input virus in test [1] was 100%.

B4: EVB167 (antibody, V domains shown)
VH: AVQLVQSGAEVKKPGTTVKISCKVSGYTFIQEYIHWVQQAPGKGLVWMGLGDPENNETLYSEDFQGRVTMTADTSSDTAYLELRSLTFADTAVYFCTSRKSWWGQGTLVTVAS
VL: ELVLTQSPGTLSLSPGESATLSCRASQSLSSDSVSWFQQKPGQAPRLVIHGTSKRATGIPDRFSGGGSGTDFTLTIARLEPEDFAVYYCQRSGYGMSVTWTFGQGTTVEIK
In test [2], B4 showed an Abs 450 (1/27) of 2.97 Abs 450 and an Abs 450 (Und.) of 3.37 Abs 450.
